From IntAct's records for PubMed 17954917

B1: Signal transducer and activator of transcription 3 (Rattus norvegicus (Rat)), P52631 (parent)
chain: MAQWNQLQQLDTRYLEQLHQLYSDSFPMELRQFLAPWIESQDWAYAASKESHATLVFHNLLGEIDQQYSRFLQESNVLYQHNLRRIKQFLQSRYLEKPMEIARIVARCLWEESRLLQTAATAAQQGGQANHPTAAVVTEKQQMLEQHLQDVRKRVQDLEQKMKVVENLQDDFDFNYKTLKSQGDMQDLNGNNQSVTRQKMQQLEQMLTALDQMRRSIVSELAGLLSAMEYVQKTLTDEELADWKRRQQIACIGGPPNICLDRLENWITSLAESQLQTRQQIKKLEELQQKVSYKGDPIVQHRPMLEERIVDLFRNLMKSAFVVERQPCMPMHPDRPLVIKTGVQFTTKVRLLVKFPELNYQLKIKVCIDKDSGDVAALRGSRKFNILGTNTKVMNMEESNNGSLSAEFKHLTLREQRCGNGGRANCDASLIVTEELHLITFETEVYHQGLKIDLETHSLPVVVISNICQMPNAWASILWYNMLTNNPKNVNFFTKPPIGTWDQVAEVLSWQFSSTTKRGLSIEQLTTLAEKLLGPGVNYSGCQITWAKFCKENMAGKGFSFWVWLDNIIDLVKKYILALWNEGYIMGFISKERERAILSTKPPGTFLLRFSESSKEGGVTFTWVEKDISGKTQIQSVEPYTKQQLNNMSFAEIIMGYKIMDATNILVSPLVYLYPDIPKEEAFGKYCRPESQEHPEADPGSAAPYLKTKFICVTPTTCSNTIDLPMSPRTLDSLMQFGNNGEGAEPSAGGQFESLTFDMDLTSECATSPM
partner: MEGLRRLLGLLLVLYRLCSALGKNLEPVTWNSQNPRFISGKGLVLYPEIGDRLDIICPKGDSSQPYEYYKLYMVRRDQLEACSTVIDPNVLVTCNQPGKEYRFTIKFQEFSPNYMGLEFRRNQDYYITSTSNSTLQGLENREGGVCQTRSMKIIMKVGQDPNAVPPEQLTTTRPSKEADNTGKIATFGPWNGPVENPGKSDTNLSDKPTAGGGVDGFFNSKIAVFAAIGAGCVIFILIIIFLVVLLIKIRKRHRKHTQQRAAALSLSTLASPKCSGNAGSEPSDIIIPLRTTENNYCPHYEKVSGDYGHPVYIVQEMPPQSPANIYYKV
B2: Ephrin-B1 (Xenopus laevis (African clawed frog)), O13097 (parent)
chain: B1 partner

Variants of: B1
Details: with efnb1_xenla efnb1, O13097

How did the “effect of a mutation on the interaction” value turn out when R609L was run?
Its value is “disrupting interaction strength”.

Variants of: B2
Details: with stat3_rat Stat3, P52631

MEGLRRLLGLLLVLYRLCSALGKNLEPVTWNSQNPRFISGKGLVLYPEIGDRLDIICPKGDSSQPYEYYKLYMVRRDQLEACSTVIDPNVLVTCNQPGKEYRFTIKFQEFSPNYMGLEFRRNQDYYITSTSNSTLQGLENREGGVCQTRSMKIIMKVGQDPNAVPPEQLTTTRPSKEADNTGKIATFGPWNGPVENPGKSDTNLSDKPTAGGGVDGFFNSKIAVFAAIGAGCVIFILIIIFLVVLLIKIRKRHRKHTQQRAAALSLSTLASPKCSGNAGSEPSDIIIPLRTTENNFCPHYEKVSGDYGHPVFIVQEMPPQSPANIYYKV [Y296F;Y312F] was tested. Which “effect of a mutation on the interaction” value did it give?
Its value is “decreasing interaction strength”.

Which “effect of a mutation on the interaction” value does the source give for MEGLRRLLGLLLVLYRLCSALGKNLEPVTWNSQNPRFISGKGLVLYPEIGDRLDIICPKGDSSQPYEYYKLYMVRRDQLEACSTVIDPNVLVTCNQPGKEYRFTIKFQEFSPNYMGLEFRRNQDYYITSTSNSTLQGLENREGGVCQTRSMKIIMKVGQDPNAVPPEQLTTTRPSKEADNTGKIATFGPWNGPVENPGKSDTNLSDKPTAGGGVDGFFNSKIAVFAAIGAGCVIFILIIIFLVVLLIKIRKRHRKHTQQRAAALSLSTLASPKCSGNAGSEPSDIIIPLRTTENNFCPHYEKVSGDFGHPVFIVQEMPPQSPANIYYKV [Y296F;Y307F;Y312F] here?
The value was “decreasing interaction strength”.
